# Results: article PMC4001326, “DNA polymerase V activity is autoregulated by a novel intrinsic DNA-dependent ATPase”
# Where “and” joins values, the source holds several entries; their conditions need not be identical. Equal entries are not always repeated.
# Tests used:
# [1] = molecular target: pol V Mut E38K/K72R K72R;RecA:E38K (Escherichia coli (pol V from strain RW644)) (UniProt P0AG11+P04152+P0A7G6); assay: fluorescence anisotropy; conditions: fluorescein-dT replacing T44 (from parent S5); 20 mM Tris-HCl pH 7.5, 25 mM Na glutamate, 8 mM MgCl2, 8 mM DTT, 4% glycerol, 0.1 mM EDTA, 37 C; 50 nM labeled hairpin; 500 uM ATP or ATPgS (titrations to …)
# [2] = molecular target: pol V Mut E38K/ΔC17 del17-17;RecA:E38K (Escherichia coli (pol V from strain RW644)) (UniProt P0AG11+P04152+P0A7G6); assay: fluorescence anisotropy; conditions: fluorescein-dT replacing T44 (from parent S5); 20 mM Tris-HCl pH 7.5, 25 mM Na glutamate, 8 mM MgCl2, 8 mM DTT, 4% glycerol, 0.1 mM EDTA, 37 C; 50 nM labeled hairpin; 500 uM ATP or ATPgS (titrations to …)
# [3] = molecular target: T1, pol V Mut WT (UmuD'2C-RecA-ATP) (Escherichia coli (pol V from strain …, UniProt P0AG11;P04152;P0A7G6 25-139;1-422;2-353)); assay: fluorescence anisotropy; ATPgS titration, saturating at about 220 uM; 20 mM Tris-HCl pH 7.5, 25 mM Na glutamate, 8 mM MgCl2, 8 mM DTT, 4% glycerol, 0.1 mM EDTA, 37 C; 50 nM labeled hairpin; 500 uM ATP or ATPgS (titrations to 750 uM); conditions: protein: recombinant, tags: His (pol V), chain copies: 2;1;1, label: fluorescein (internal dT), 18 bp stem, 5' overhang 3 nt by name
# [4] = molecular target: T1, pol V Mut WT (UmuD'2C-RecA-ATP); assay: fluorescence anisotropy; 500 uM ATPgS; 20 mM Tris-HCl pH 7.5, 25 mM Na glutamate, 8 mM MgCl2, 8 mM DTT, 4% glycerol, 0.1 mM EDTA, 37 C; 50 nM labeled hairpin; 500 uM ATP or ATPgS (titrations to 750 uM); conditions: protein: recombinant, tags: His (pol V), chain copies: 2;1;1, label: fluorescein (internal dT), 18 bp stem, 5' overhang 12 nt
molecule,measurement,setting,value
CGAAACAGGAAAGCAGTTAGCGCATTCAGCTCATACTGCTGAATGCGCTAACTGC [Fluorescein 12 nt oh HP],Kd,[1],920 nM
same,Kd,[2],312 nM and 469 nM
"AGAGCAGTTAGCGCATTCAGCTCATACTGCTGAATGCGCTAACTGC (structured_DNA, fluorescein-dT replacing T17 (from parent S1)) [Fluorescein 3 nt oh HP]",binding result,[3],binds
"Fluorescein 12 nt oh HP (structured_DNA, fluorescein-dT replacing T44 (from parent S5)) DNA: CGAAACAGGAAAGCAGTTAGCGCATTCAGCTCATACTGCTGAATGCGCTAACTGC",Kd,[4],876 ± 52 nM
